Tests used:
[1] = molecular target: T1, CD20 on the CD20 expressing human mantle cell lymphoma cell line Jeko-1 (human, UniProt P11836 1-297); test: Cell-based binding to Jeko-1 cells, Meso Scale Discovery electrochemiluminescence, 4PL; % potency relative to reference standard; TG-1101 from 10 L culture at post-shift pH 6.80 +/- 0.03
T1 construct: whole, on cells; The target is presented on Jeko-1 cells; also called CD20 antigen
T1 sequence (looked up): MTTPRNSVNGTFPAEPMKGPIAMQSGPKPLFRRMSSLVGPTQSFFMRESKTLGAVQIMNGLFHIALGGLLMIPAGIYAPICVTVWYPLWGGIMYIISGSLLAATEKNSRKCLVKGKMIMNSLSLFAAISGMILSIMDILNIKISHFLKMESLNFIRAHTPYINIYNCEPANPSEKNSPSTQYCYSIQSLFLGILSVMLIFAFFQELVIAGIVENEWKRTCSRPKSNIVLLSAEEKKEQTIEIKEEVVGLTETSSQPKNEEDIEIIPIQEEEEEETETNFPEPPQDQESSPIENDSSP
Procedure: (§1) In the CD20 binding activity assay, the binding of anti-CD20 antibody to the CD20 expressing human mantle cell lymphoma cell line, Jeko-1, is evaluated using the Meso Scale Discovery (MSD) method. Dose response curves are modeled using 4PL equation, and results are reported as % potency relative to the reference standard.
(§2) Purified antibody (TG-1101) from each of the 10 L bioreactor cultures was also tested in various binding assays (CD20 antigen, Fc gamma receptor, complement component 1q), as well as Fc effector activity assays (ADCC, CDC).

[2] = molecular target: T1, CD20 on the CD20 expressing human …; test: Cell-based binding to Jeko-1 cells, Meso Scale Discovery electrochemiluminescence, 4PL; % potency relative to reference standard; TG-1101 from 10 L culture at post-shift pH 6.85 +/- 0.05
Procedure: as §1, §2

[3] = molecular target: T2, C1q (complement component 1q) (UniProt P02745 23-245; P02746 28-253; P02747 29-245); test: C1q ELISA, 4-parameter logistic fit; % potency relative to reference standard; TG-1101 from 10 L culture at post-shift pH 6.80 +/- 0.03
Procedure: (§3) The binding of anti-CD20 antibody to C1q is evaluated using a C1q ELISA-based method. The dose-response binding is modeled by weighted nonlinear regression using a 4-parameter logistic fit, and the results are reported as % potency relative to the reference standard.
as §2

[4] = molecular target: T3, FcγRIIIa-158V (Fc gamma receptor 3a, higher affinity allele) (UniProt P08637 17-208); test: SPR, Fc receptor immobilised on chip, antibody injected; 1:1 Langmuir fit; % potency relative to reference standard; TG-1101 from 10 L culture at post-shift pH 6.85 +/- 0.05
T3 construct: Immobilised directly on the SPR chip; also called Fc receptor
Procedure: (§4) The binding of anti-CD20 antibody samples to FcγRIIIa is evaluated by surface plasmon resonance (SPR). The method follows a direct binding assay methodology where the Fc receptor (ligand) is directly immobilized onto the appropriate flow cell on a sensor chip surface and the analyte is injected over the chip to assess binding. The high affinity allele of FcγRIIIa (158V) is determined.
(§5) The equilibrium dissociation constants (KD) and the relative affinities of each sample relative to the reference standard is determined for each receptor. The rates of change of the SPR signal is analyzed using a 1:1 Langmuir model to yield apparent rate constants for the association and dissociation phases of the reaction, and equilibrium dissociation constants. Results are reported as % potency relative to the reference standard for the FcγRIIIa-158V variant.
as §2

[5] = molecular target: T1, CD20 on the CD20 expressing human …; test: Cell-based binding to Jeko-1 cells, Meso Scale Discovery electrochemiluminescence, 4PL; % potency relative to reference standard; TG-1101 from 10 L culture at post-shift pH 6.70 +/- 0.10
Procedure: as §1, §2

[6] = molecular target: T2, C1q (complement component 1q); test: C1q ELISA, 4-parameter logistic fit; % potency relative to reference standard; TG-1101 from 10 L culture at post-shift pH 6.85 +/- 0.05
Procedure: as §3, §2

[7] = molecular target: T1, CD20 on the CD20 expressing human …; test: Cell-based binding to Jeko-1 cells, Meso Scale Discovery electrochemiluminescence, 4PL; % potency relative to reference standard; TG-1101 from 10 L culture at post-shift pH 6.95 +/- 0.05
Procedure: as §1, §2

[8] = molecular target: T3, FcγRIIIa-158V (Fc gamma receptor 3a, …); test: SPR, Fc receptor immobilised on chip, antibody injected; 1:1 Langmuir fit; % potency relative to reference standard; TG-1101 from 10 L culture at post-shift pH 6.70 +/- 0.10
Procedure: as §4, §5, §2

[9] = molecular target: T2, C1q (complement component 1q); test: C1q ELISA, 4-parameter logistic fit; % potency relative to reference standard; TG-1101 from 10 L culture at post-shift pH 6.70 +/- 0.10
Procedure: as §3, §2

[10] = molecular target: T2, C1q (complement component 1q); test: C1q ELISA, 4-parameter logistic fit; % potency relative to reference standard; TG-1101 from 10 L culture at post-shift pH 6.95 +/- 0.05
Procedure: as §3, §2

[11] = molecular target: T3, FcγRIIIa-158V (Fc gamma receptor 3a, …); test: SPR, Fc receptor immobilised on chip, antibody injected; 1:1 Langmuir fit; % potency relative to reference standard; TG-1101 from 10 L culture at post-shift pH 6.80 +/- 0.03
Procedure: as §4, §5, §2

[12] = molecular target: T3, FcγRIIIa-158V (Fc gamma receptor 3a, …); test: SPR, Fc receptor immobilised on chip, antibody injected; 1:1 Langmuir fit; % potency relative to reference standard; TG-1101 from 10 L culture at post-shift pH 6.95 +/- 0.05
Procedure: as §4, §5, §2

T3 sequence (P08637 17-208 F176V): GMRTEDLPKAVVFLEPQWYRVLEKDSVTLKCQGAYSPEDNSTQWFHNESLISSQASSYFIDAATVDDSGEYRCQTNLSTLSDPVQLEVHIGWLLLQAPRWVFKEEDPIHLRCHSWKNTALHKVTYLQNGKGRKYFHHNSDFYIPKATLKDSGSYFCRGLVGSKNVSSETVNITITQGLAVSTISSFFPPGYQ
T2 sequence (P02745 23-245, chain 1 of 3): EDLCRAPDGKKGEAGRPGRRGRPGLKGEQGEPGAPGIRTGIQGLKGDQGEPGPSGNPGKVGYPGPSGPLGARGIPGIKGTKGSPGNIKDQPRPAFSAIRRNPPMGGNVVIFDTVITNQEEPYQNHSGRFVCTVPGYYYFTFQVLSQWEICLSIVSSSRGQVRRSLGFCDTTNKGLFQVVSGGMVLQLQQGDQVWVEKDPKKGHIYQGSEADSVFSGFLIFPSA
T2 sequence (P02746 28-253, chain 2 of 3): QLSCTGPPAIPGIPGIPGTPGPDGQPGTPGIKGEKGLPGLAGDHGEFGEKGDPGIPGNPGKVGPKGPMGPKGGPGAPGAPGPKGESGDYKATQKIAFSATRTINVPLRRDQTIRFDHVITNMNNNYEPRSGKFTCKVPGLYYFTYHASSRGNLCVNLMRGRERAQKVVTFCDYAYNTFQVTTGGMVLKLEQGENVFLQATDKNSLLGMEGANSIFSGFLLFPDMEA
T2 sequence (P02747 29-245, chain 3 of 3): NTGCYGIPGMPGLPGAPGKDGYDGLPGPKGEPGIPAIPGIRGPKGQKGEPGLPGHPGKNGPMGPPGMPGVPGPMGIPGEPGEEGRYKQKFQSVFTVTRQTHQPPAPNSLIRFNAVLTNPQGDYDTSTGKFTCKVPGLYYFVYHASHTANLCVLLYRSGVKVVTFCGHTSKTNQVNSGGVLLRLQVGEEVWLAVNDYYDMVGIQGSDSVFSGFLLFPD

B1: TG-1101 (anti-CD20 IgG1 monoclonal antibody expressed in YB2/0 rat hybridoma cells) (antibody)
heavy: not shown
light: QIVLSQSPAILSASPGEKVTMTCRASSSVSYMHWYQQKPGSSPKPWIYATSNLASGVPARFSGSGSGTSYSFTISRVEAEDAATYYCQQWTFNPPTFGGGTRLEIKRTVAAPSVFIFPPSDEQLKSGTASVVCLLNNFYPREAKVQWKVDNALQSGNSQESVTEQDSKDSTYSLSSTLTLSKADYEKHKVYACEVTHQGLSSPVTKSFNRGEC
modifications: N-linked glycans with low fucosylation (18.4-27.5 % fucosylation in the 10 L cultures of Table 7)
notes: also called ublituximab; UBX
CD20 binding (%) relative to the reference standard [1]: 96.8%
CD20 binding (%) relative to the reference standard [2]: 89.5%
C1q binding (%) relative to the reference standard [3]: 84.5%
FcγRIIIa-158V binding (%) relative to the reference standard [4]: 108%
CD20 binding (%) relative to the reference standard [5]: 116%
C1q binding (%) relative to the reference standard [6]: 81.2%
CD20 binding (%) relative to the reference standard [7]: 110%
FcγRIIIa-158V binding (%) relative to the reference standard [8]: 120%
C1q binding (%) relative to the reference standard [9]: 86.6%
C1q binding (%) relative to the reference standard [10]: 76.5%
FcγRIIIa-158V binding (%) relative to the reference standard [11]: 98.2%
FcγRIIIa-158V binding (%) relative to the reference standard [12]: 109%
